Data on two molecules can be found in paper doi:10.1101/433045 (bioRxiv, 2020).

No end group written: not given here. FAM = 5,6-carboxyfluorescein

Holding throughout (test): fluorescence polarisation
For orientation: Fluorescence polarisation rises when a labelled molecule tumbles more slowly, as on binding a larger partner.

The target in one assay is T1, Nrd1 CID K21D (S. cerevisiae, UniProt P53617 1-153, K21D).
T1 sequence: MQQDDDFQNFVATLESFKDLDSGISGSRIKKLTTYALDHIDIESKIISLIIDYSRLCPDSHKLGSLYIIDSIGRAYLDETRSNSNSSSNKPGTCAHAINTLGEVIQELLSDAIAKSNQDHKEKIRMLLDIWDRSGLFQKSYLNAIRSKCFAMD

The target of the next assay is T2, Nrd1 CID (S. cerevisiae, UniProt P53617 1-153).
T2 sequence: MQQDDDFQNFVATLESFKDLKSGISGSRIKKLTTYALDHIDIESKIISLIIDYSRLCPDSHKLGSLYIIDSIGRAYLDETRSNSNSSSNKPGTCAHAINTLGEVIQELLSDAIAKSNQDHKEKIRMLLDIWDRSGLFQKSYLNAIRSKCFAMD

The target in another assay is T3, Nrd1 CID R28D (S. cerevisiae, UniProt P53617 1-153, R28D).
T3 sequence: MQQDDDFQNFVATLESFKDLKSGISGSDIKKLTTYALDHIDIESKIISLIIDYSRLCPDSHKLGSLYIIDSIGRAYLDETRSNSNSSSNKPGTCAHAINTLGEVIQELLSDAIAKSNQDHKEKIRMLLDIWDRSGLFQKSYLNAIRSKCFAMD

Another assay concerns the target T4, Nrd1 CID L20D (S. cerevisiae, UniProt P53617 1-153, L20D).
T4 sequence: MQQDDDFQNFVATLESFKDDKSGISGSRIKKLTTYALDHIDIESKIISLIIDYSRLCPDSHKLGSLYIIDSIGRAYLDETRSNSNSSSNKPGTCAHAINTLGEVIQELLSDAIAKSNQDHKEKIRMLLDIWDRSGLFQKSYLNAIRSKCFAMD

The target in a further assay is T5, Nrd1 CID S25D (S. cerevisiae, UniProt P53617 1-153, S25D).
T5 sequence: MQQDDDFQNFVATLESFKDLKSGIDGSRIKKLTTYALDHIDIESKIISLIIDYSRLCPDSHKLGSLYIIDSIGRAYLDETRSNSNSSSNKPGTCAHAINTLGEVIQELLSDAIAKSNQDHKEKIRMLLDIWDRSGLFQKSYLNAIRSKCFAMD

In assay [1] the target is Trf4 NIM peptide (S. cerevisiae).

Consider {FAM}-DDDEDDYTPSIS [Sen1 NIM peptide], for which the binding result with Nrd1 CID K21D, with Nrd1 CID R28D, with Nrd1 CID L20D and in the assay with Nrd1 CID S25D was “binds” in each case. Further, the dissociation constant (Kd) (commonly a measure of binding affinity in units of concentration) in the assay with Nrd1 CID amounted to 1200 ± 20 nM.

B1: Nrd1 CID (domain or fragment)
chain: MQQDDDFQNFVATLESFKDLKSGISGSRIKKLTTYALDHIDIESKIISLIIDYSRLCPDSHKLGSLYIIDSIGRAYLDETRSNSNSSSNKPGTCAHAINTLGEVIQELLSDAIAKSNQDHKEKIRMLLDIWDRSGLFQKSYLNAIRSKCFAMD
The molecule B1 displayed a Kd in assay [1] of 900 nM.
